The source of these data is doi:10.1101/2023.09.30.560296 (bioRxiv, 2023).

For assay [1], the target named is T1, GST-fused LC3B (UniProt Q9GZQ8 1-120). As to the kind of experiment: Microfluidic Diffusional Sizing.
Assay [2] addresses T1, GST-fused LC3B. Put plainly: SPR.

“And” between values parts separate entries of the source, which are not always exact repeats. Equal values may be shown once. Square brackets hold non-standard residues; d marks the D form. Ends that are not written are not given here. * marks the point of attachment. FITC = O=C1OC2(c3ccc(O)cc3Oc3cc(O)ccc32)c2ccc(NC(=S)*)cc21; pS = N[C@@H](COP(=O)(O)O)C(=O)O; Ahx = NCCCCCC(=O)O

B1: FITC-Ahx OPTN LIR peptide 169-185 (F178W) (peptide)
peptide: {FITC-Ahx}-NSSGSSEDSWVEIRMAE
Broadly, the Kd is the free concentration of one partner at which half of the binding sites on the other are occupied at equilibrium, for simple one-to-one binding. A low value points to tighter binding. As for B1, binding with GST-fused LC3B [1] was put at a Kd of 15.9 µM.

B2: FITC-Ahx OPTN LIR peptide 169-185 (pS177 F178A) (peptide)
peptide: {FITC-Ahx}-NSSGSSED[pS]AVEIRMAE
In the assay with GST-fused LC3B [2], B2 gave a Kd above 100 µM. Moreover, the “fold increase of Kd against pS177” value in the assay with GST-fused LC3B [1] was found to be 5 fold.

B3: FITC-Ahx OPTN LIR peptide 169-185 (S177E) (peptide)
peptide: {FITC-Ahx}-NSSGSSEDEFVEIRMAE
In the assay with GST-fused LC3B [1], B3 returned a Kd of 42.8 µM. In other words, the double-digit micromolar range.

B4: FITC-Ahx OPTN LIR peptide 169-185 (pS177 M183A) (peptide)
peptide: {FITC-Ahx}-NSSGSSED[pS]FVEIRAAE
B4 registered a Kd with GST-fused LC3B [2] of 36.7 µM.

B5: FITC-Ahx OPTN LIR peptide 169-185 (pS177 F178W) (peptide)
peptide: {FITC-Ahx}-NSSGSSED[pS]WVEIRMAE
In the case of B5, in the assay with GST-fused LC3B [1], the “fold increase of binding affinity against pS177” value is 7 fold.

B6: FITC-Ahx OPTN LIR peptide 169-185 (S177D) (peptide)
peptide: {FITC-Ahx}-NSSGSSEDDFVEIRMAE
Take B6: the Kd was determined as 36.7 µM in the assay with GST-fused LC3B [2] and 44.8 µM with GST-fused LC3B [1].

B7: FITC-Ahx OPTN LIR peptide 169-185 (pS177) (peptide)
peptide: {FITC-Ahx}-NSSGSSED[pS]FVEIRMAE
Regarding B7, the Kd with GST-fused LC3B [1] is 14.3 µM and 13.7 µM.
